According to US20090166224A1 (published 2009):

Legend:
Assay in all cases: human serum on Con A/WGA/Jacalin column, lectin-specific displacer fraction, LC-MS/MS; grade = SEQUEST rank group (+ = ranks 1-5, ++++ = 16-20)
[1] = molecular target: T1, APOLIPOPROTEIN C-III (human, UniProt P02656 21-99)
T1 construct: from human serum; also called APC3

[2] = molecular target: T2, Alpha-1-antitrypsin (human, UniProt P01009 25-418)
T2 construct: also called A1AT; α1-antitrypsin

[3] = molecular target: T3, APOLIPOPROTEIN E (human, UniProt P02649 19-317)
T3 construct: from human serum; also called APE
T3 sequence (P02649 19-317 limits assumed): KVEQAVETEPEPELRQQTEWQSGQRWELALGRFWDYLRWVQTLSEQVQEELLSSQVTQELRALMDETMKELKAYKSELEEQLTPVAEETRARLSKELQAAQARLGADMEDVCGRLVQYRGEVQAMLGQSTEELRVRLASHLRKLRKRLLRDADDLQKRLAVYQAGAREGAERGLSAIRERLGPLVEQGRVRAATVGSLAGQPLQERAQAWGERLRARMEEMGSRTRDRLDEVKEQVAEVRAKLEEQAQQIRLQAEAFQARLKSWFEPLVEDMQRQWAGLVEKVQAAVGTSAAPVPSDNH

[4] = molecular target: T4, INTER-ALPHA-TRYPSIN INHIBITOR HEAVY CHAIN H2 (human, UniProt P19823 55-702)
T4 construct: from human serum; also called ITH2
T4 sequence (looked up): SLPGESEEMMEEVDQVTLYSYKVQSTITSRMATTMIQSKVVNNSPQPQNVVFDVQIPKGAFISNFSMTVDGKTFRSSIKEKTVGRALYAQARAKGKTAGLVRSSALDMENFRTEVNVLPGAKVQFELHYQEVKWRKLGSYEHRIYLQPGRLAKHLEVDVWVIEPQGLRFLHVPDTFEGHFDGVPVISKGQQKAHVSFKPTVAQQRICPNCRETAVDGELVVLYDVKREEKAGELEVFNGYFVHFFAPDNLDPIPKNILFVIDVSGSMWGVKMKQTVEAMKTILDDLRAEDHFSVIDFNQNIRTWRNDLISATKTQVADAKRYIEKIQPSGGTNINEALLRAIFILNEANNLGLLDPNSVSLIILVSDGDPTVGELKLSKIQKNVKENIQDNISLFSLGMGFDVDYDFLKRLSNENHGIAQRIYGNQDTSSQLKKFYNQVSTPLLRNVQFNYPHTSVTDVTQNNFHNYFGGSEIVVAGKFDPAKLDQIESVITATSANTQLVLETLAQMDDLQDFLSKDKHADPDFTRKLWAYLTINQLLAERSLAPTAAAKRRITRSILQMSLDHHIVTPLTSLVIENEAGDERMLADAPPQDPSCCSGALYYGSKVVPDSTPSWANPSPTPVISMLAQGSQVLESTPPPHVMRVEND

[5] = molecular target: T5, HAPTOGLOBIN-RELATED PROTEIN (human, UniProt P00739 1-348, limits assumed)
T5 construct: from human serum; also called HPTR
T5 sequence (looked up): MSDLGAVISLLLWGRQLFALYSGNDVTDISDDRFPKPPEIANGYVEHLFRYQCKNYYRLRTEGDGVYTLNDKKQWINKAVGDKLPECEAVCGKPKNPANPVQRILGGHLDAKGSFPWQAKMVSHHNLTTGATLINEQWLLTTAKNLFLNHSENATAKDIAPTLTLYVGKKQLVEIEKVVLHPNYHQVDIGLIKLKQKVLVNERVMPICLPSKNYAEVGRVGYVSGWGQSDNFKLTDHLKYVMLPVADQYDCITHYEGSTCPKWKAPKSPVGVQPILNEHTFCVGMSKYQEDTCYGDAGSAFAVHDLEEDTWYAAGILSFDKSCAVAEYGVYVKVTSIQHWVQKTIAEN

[6] = molecular target: T6, IG GAMMA-3 CHAIN C REGION (human, UniProt P01860-1 1-377)
T6 construct: domain: C region; Polyclonal serum IgG3, identified through its constant region; variable regions and light chains not defined; also called GC3
T6 sequence (P01860 other isoform, or with tags, fused parts or gaps limits assumed): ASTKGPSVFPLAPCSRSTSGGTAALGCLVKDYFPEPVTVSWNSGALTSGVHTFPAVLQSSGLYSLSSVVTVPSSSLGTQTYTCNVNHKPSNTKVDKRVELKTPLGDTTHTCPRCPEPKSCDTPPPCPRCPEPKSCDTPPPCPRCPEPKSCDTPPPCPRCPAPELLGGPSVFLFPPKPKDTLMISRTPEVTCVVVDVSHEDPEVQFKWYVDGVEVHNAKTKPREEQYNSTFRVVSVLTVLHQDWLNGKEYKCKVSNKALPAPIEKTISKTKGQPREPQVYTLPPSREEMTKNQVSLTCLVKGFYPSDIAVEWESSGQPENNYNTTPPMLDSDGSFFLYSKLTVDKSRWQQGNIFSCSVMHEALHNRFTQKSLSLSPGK

[7] = molecular target: T7, INTER-ALPHA-TRYPSIN INHIBITOR HEAVY CHAIN H1 (human, UniProt P19827 35-672)
T7 construct: from human serum; also called ITH1
T7 sequence (looked up): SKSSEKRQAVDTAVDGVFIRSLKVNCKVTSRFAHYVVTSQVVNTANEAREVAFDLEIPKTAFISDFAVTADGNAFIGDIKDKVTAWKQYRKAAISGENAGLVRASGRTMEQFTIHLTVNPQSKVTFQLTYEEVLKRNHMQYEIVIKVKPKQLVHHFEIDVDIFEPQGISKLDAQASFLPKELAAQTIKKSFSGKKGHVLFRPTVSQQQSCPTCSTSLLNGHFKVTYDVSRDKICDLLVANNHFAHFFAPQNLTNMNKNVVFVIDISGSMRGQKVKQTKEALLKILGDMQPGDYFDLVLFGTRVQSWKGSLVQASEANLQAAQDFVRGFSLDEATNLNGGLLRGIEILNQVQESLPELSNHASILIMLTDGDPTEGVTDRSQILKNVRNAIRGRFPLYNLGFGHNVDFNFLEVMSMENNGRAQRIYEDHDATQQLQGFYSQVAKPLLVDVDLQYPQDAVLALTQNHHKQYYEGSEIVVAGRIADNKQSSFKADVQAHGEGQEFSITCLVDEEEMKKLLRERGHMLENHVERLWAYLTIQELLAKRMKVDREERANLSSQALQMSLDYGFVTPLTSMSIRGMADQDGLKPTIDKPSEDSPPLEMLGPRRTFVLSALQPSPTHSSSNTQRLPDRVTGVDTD

T1 sequence (P02656 21-99 limits assumed): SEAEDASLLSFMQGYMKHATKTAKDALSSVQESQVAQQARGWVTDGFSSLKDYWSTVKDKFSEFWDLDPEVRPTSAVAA
T2 sequence (P01009 25-418 limits assumed): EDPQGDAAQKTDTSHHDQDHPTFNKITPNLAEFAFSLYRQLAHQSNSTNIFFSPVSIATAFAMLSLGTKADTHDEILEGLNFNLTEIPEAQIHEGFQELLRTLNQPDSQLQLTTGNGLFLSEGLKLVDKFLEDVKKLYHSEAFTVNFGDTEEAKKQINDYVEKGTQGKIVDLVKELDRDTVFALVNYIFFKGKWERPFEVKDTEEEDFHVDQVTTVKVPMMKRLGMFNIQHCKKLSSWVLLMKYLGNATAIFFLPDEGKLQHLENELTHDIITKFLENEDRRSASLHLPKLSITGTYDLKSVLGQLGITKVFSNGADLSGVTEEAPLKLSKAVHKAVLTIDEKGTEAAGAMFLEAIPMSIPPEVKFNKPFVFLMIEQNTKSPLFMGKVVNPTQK

B1: Jacalin lectin, agarose-bound (other)
chain 1: GKAFDDGAFTGIREINLSYNKETAIGDFQVVYDLNGSPYVGQNHKSFITGFTPVKISLDFPSEYIMEVSGYTGNVSGYVVVRSLTFKTNKKTYGPYGVTSGTPFNLPIENGLIVGFKGSIGYWLDYFSMYLSL
chain 2: NEQSGKSQTVIVGSWGAKVS
modifications: immobilized on agarose
notes: Lectin; released with galactose; Coated on the plate in the lectin ELISA
- SEQUEST ranking (relative abundance in the Jacalin displacement fraction) [1]: 6 to 10 rank
- SEQUEST ranking (relative abundance in the Jacalin displacement fraction) [2]: 1 to 5 rank
- SEQUEST ranking (relative abundance in the Jacalin displacement fraction) [3]: 11 to 15 rank
- SEQUEST ranking (relative abundance in the Jacalin displacement fraction) [4]: 16 to 20 rank
- SEQUEST ranking (relative abundance in the Jacalin displacement fraction) [5]: 6 to 10 rank
- SEQUEST ranking (relative abundance in the Jacalin displacement fraction) [6]: 16 to 20 rank
- SEQUEST ranking (relative abundance in the Jacalin displacement fraction) [7]: 6 to 10 rank
